Measured values: article PMC10995199, “Architecture and regulation of filamentous human cystathionine beta-synthase” (Nature Communications, 2024)

Biological target: human cystathionine beta-synthase regulatory domain alone with the loop deletion (CBS^RDΔ516–525) (human) (UniProt P35520)
Assay: SEC + native gel or EMSA; control constructs in analytical Superose 6 gel filtration and clear-native and blue-native PAGE (Supplementary Fig. 2); self-association

In the case of “human cystathionine beta-synthase regulatory domain alone with the loop deletion (CBS^RDΔ516–525) (from UniProt P35520 406-515) (domain or fragment)”, the stoichiometry N is reported as 2.
